Assay results published in publication doi:10.1101/368720.

What was measured:
[1] = target: rabbit skeletal muscle G-actin (rabbit) (UniProt P68135); experiment: ITC
[2] = target: rabbit skeletal muscle filamentous actin (rabbit) (UniProt P68135); experiment: co-sedimentation

Substance | Kd [1] | stoichiometry N (occidiofungin per G-actin) [1] | Kd [2] | stoichiometry N (occidiofungin per actin monomer) [2] | stoichiometry N (phalloidin per actin monomer) [2]
occidiofungin (native, unmodified) (peptide) | 1000 nM | 1 | 1000 nM | 24 | 
phalloidin (peptide) |  |  | 8 nM |  | 0.6
